Assay results reported in patent US20190300616A1 (UNIVERSITY OF CHICAGO, published 2019).

T1: recombinant human IL13Rα1hFc chimera (human, UniProt P78552 27-343, limits assumed)
T1 construct: Bought from R&D Systems; also called rhIL13Rα1; hrIL13Rα1; not shown: human Fc (hFc) of the purchased chimera
T1 sequence (looked up): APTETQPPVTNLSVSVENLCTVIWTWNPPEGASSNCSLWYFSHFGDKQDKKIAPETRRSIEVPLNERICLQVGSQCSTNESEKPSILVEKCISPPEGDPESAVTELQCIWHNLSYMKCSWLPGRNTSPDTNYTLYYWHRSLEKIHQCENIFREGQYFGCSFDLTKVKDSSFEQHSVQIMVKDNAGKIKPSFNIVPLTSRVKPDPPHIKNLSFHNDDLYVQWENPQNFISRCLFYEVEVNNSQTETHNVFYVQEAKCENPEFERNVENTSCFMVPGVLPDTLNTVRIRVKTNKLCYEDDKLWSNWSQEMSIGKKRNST

T2: recombinant mouse IL13Rα2hFc chimera (mouse, UniProt O88786 22-334, limits assumed)
T2 construct: Bought from R&D Systems; also called mouse rIL13Rα2; mouse recombinant IL13Rα2; not shown: human Fc (hFc) of the purchased chimera
T2 sequence (looked up): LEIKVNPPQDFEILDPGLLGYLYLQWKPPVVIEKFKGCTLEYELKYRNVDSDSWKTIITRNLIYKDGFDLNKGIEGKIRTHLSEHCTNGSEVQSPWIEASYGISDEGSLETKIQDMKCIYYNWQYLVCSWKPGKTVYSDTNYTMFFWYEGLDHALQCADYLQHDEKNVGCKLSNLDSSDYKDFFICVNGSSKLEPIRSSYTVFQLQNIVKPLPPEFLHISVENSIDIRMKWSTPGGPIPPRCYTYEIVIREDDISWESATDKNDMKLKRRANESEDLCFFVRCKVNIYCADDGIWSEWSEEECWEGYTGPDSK


Experiments:
[1] = biological target: T1, recombinant human IL13Rα1hFc chimera; assay: plate-bound ELISA on IL13Rα1hFc
[2] = biological target: T2, recombinant mouse IL13Rα2hFc chimera; assay: plate-bound ELISA on mouse rIL13Rα2hFc
*41BB.z = biological target: T3, *41BB.z; assay: flow cytometry of transduced T cells stained with IL13Rα2Fc and secondary antibody, axis labelled CAR
T3 construct: also called M47 IL13Ra2 - SH - TM* (CD8a) - 41BB - ζ-chain CAR on T cells

CD28.OX40.z = biological target: T4, CD28.OX40.z; assay: as above
T4 construct: also called M47 IL13Ra2 - SH - TM - CD28 - OX40 - ζ-chain CAR on T cells

Binder | binding result [1] | binding result [2] | binding result (*41BB.z) | binding result (CD28.OX40.z)
IL13Rα2 (clone 47) mAb (antibody, V domains shown, Mouse hybridoma antibody; mIgG1 was used as isotype control; also called mAb47; m47) VH: QVQLQQPGAELVRPGASVKLSCKASGYTFSNYLMNWVKQRPEQDLDWIGRIDPYDGDIDYNQNFKDKAILTVDKSSSTAYMQLSSLTSEDSAVYYCARGYGTAYGVDYWGQGTSVTVSS VL: not shown | no binding (tested: 4 µg/ml) | no binding | – | –
recombinant human IL13Rα2hFc chimera (Fc fusion, UniProt Q14627 27-343, looked up, Bought from R&D Systems; also called rhIL13Rα2hFc; rhIL13Rα2; not shown: human Fc (hFc) of the purchased chimera) DTEIKVNPPQDFEIVDPGYLGYLYLQWQPPLSLDHFKECTVEYELKYRNIGSETWKTIITKNLHYKDGFDLNKGIEAKIHTLLPWQCTNGSEVQSSWAETTYWISPQGIPETKVQDMDCVYYNWQYLLCSWKPGIGVLLDTNYNLFYWYEGLDHALQCVDYIKADGQNIGCRFPYLEASDYKDFYICVNGSSENKPIRSSYFTFQLQNIVKPLPPVYLTFTRESSCEIKLKWSIPLGPIPARCFDYEIEIREDDTTLVTATVENETYTLKTTNETRQLCFVVRSKVNIYCSDDGIWSEWSDKQCWEGEDLSKKTLLR | – | – | binds | binds
